We go through ten sequences from the Immune Epitope Database (IEDB).

For test [1], the target named is HLA-A*03:01. As to the kind of experiment: IEDB peptide-MHC binding, purified MHC/competitive/fluorescence; filed as Kd, often an IC50 or EC50 that approximates it; ≥ and ≤ were set here for values at or beyond the usual limits of such assays. To be noted: source organism: Entamoeba histolytica HM-1:IMSS.
Test [2] addresses HLA-B*18:01. The test is described as above. To be noted: source organism: Entamoeba histolytica HM-1:IMSS.
Test [3] concerns the target HLA-B*57:01. The test is described as above. The note with it: source organism: Entamoeba histolytica HM-1:IMSS.
Test [4] deals with HLA-B*15:01. The test is described as above. The note with it: source organism: Entamoeba histolytica HM-1:IMSS.
The target of test [5] is HLA-A*02:19. The test is described as above. The note with it: source organism: Entamoeba histolytica HM-1:IMSS.
Test [6] concerns the target HLA-B*51:01. The test is described as above. The note with it: source organism: Entamoeba histolytica HM-1:IMSS.
Test [7] addresses HLA-B*46:01. Described as above. To be noted: source organism: Entamoeba histolytica HM-1:IMSS.
Test [8] has as its target HLA-A*02:01. The description is as above. To be noted: source organism: Entamoeba histolytica HM-1:IMSS.
Test [9] addresses HLA-A*29:02. Described as above. To be noted: source organism: Entamoeba histolytica HM-1:IMSS.
Test [10] has as its target HLA-B*15:17. The description is as above. To be noted: source organism: Entamoeba histolytica HM-1:IMSS.
The target in test [11] is HLA-A*26:01. The description is as above. The note with it: source organism: Entamoeba histolytica HM-1:IMSS.
For test [12], the target named is HLA-B*27:03. Described as above. The note with it: source organism: Entamoeba histolytica HM-1:IMSS.
Test [13] addresses HLA-C*14:02. As to the kind of experiment: IEDB peptide-MHC binding, purified MHC/direct/fluorescence; filed as Kd, often an IC50 or EC50 that approximates it; ≥ and ≤ were set here for values at or beyond the usual limits of such assays.
Test [14] addresses HLA-A*03:01. Described as above.
Test [15] deals with HLA-A*31:01. The description is as above.
The target in test [16] is HLA-A*01:01. The test is described as above.
Test [17] concerns the target HLA-B*27:05. The description is as above.
The target of test [18] is HLA-B*15:01. Described as above.
For test [19], the target named is HLA-B*58:01. Described as above.
Test [20] concerns the target HLA-B*46:01. The test is described as above.
Test [21] deals with HLA-B*08:01. Described as above.
The target in test [22] is HLA-A*02:01. Described as above.
In test [23] the target is HLA-A*69:01. The description is as above.
Test [24] concerns the target HLA-B*07:02. The test is described as above.
The target in test [25] is HLA-A*24:02. Described as above.
Test [26] addresses HLA-A*11:01. The description is as above.
The target in test [27] is HLA-B*08:02. Described as above.
In test [28] the target is HLA-A*03:01. As to the kind of experiment: IEDB peptide-MHC binding, purified MHC/competitive/fluorescence; ≥ and ≤ were set here for values at or beyond the usual limits of such assays. To be noted: source organism: Vaccinia virus.
Test [29] addresses HLA-A*11:01. The test is described as above. The note with it: source organism: Vaccinia virus.
Test [30] deals with HLA-B*18:01. As to the kind of experiment: IEDB peptide-MHC binding, purified MHC/direct/fluorescence; filed as Kd, often an IC50 or EC50 that approximates it; ≥ and ≤ were set here for values at or beyond the usual limits of such assays. The note with it: source organism: Brucella abortus.
In test [31] the target is HLA-B*40:01. The description is as above.
The target in test [32] is HLA-A*26:01. Described as above.
The target in test [33] is HLA-B*44:02. The description is as above.
Test [34] concerns the target HLA-A*02:01. As to the kind of experiment: IEDB peptide-MHC binding, purified MHC/competitive/fluorescence; ≥ and ≤ were set here for values at or beyond the usual limits of such assays. The note with it: source organism: Vaccinia virus.
In test [35] the target is HLA-B*15:01. The description is as above. To be noted: source organism: Vaccinia virus.
Test [36] deals with HLA-A*24:02. The test is described as above. The note with it: source organism: Vaccinia virus.
The target in test [37] is HLA-B*15:03. As to the kind of experiment: IEDB peptide-MHC binding, purified MHC/competitive/radioactivity; filed as Kd, often an IC50 or EC50 that approximates it; ≥ and ≤ were set here for values at or beyond the usual limits of such assays. To be noted: source organism: Vaccinia virus WR.
Test [38] concerns the target HLA-B*39:01. As to the kind of experiment: IEDB peptide-MHC binding, purified MHC/competitive/fluorescence; filed as Kd, often an IC50 or EC50 that approximates it; ≥ and ≤ were set here for values at or beyond the usual limits of such assays. To be noted: source organism: Influenza A virus H3N2.
Test [39] addresses HLA-C*05:01. As to the kind of experiment: IEDB peptide-MHC binding, purified MHC/direct/fluorescence; filed as Kd, often an IC50 or EC50 that approximates it; ≥ and ≤ were set here for values at or beyond the usual limits of such assays. The note with it: source organism: Influenza A virus H3N2.
Where [40] appears, read: source organism: Mycobacterium tuberculosis variant bovis BCG str. Pasteur 1173P2.
[41] abbreviates: source organism: Influenza A virus (A/Duck/Shantou/2088/01(H9N2)).
Where [42] appears, read: source organism: Influenza A virus (A/Puerto Rico/8/34/Mount Sinai(H1N1)).
Where [43] appears, read: source organism: Brucella abortus.
Setting [44] is: source organism: Brucella suis 1330.
Where [45] appears, read: source organism: Giardia lamblia ATCC 50803.
Setting [46] is: source organism: Influenza A virus (A/Ck/HK/2133.1/2003(H5N1)).

As a reminder, the Kd is a measure of binding affinity in units of concentration. With YLHIHPFKI, the Kd is no less than 20 µM in test [1]; no less than 20 µM in test [2]; no less than 20 µM in [3]; no less than 20 µM in [4]; 0.0678 µM in test [5]; no less than 20 µM in test [6]. In addition, the equilibrium dissociation constant (Kd) in test [7] is no less than 20 µM; in [8], 0.0061 µM; in test [9], no less than 20 µM; in test [10], no less than 20 µM; in test [11], no less than 20 µM; in [12], no less than 20 µM.
For APINSATAM, the Kd in test [13] (setting [40]) amounted to 0.321 µM.
With EEMATKADY, the Kd in test [14] (setting [41]) is no less than 20 µM; in test [15] (setting [41]), no less than 20 µM; in test [16] (setting [41]) it was no less than 20 µM; in test [17] (setting [41]) it was no less than 20 µM; in [18] (setting [42]), 1.46 µM; in [19] (setting [41]) it was no less than 20 µM. The Kd in test [20] (setting [41]), in test [21] (setting [41]), in [22] (setting [41]), in test [23] (setting [41]), in test [24] (setting [41]) and in test [25] (setting [41]) was no less than 20 µM each time. In addition, the Kd in test [26] (setting [41]) and in test [27] (source organism: Influenza A virus (A/Taiwan/2/2006(H1N1))) was no less than 20 µM each time.
Usually IC50 stands for the concentration at which inhibition is half-maximal. A higher IC50 goes with weaker potency. For the sequence SIATNLEYK, the IC50 amounted to 3.98 µM in [28] and 0.427 µM in test [29].
Regarding APPPFRLPL, the Kd in [13] (source organism: Mycobacterium tuberculosis H37Rv) worked out at 0.714 µM; in [24] (setting [40]), 0.0775 µM.
As for LTDAFHGYH, the equilibrium dissociation constant (Kd) in [14] (setting [43]) was no less than 20 µM; in test [30], no less than 20 µM; in test [31] (setting [43]), no less than 20 µM; in [16] (setting [43]), 0.0754 µM; in [17] (setting [43]), no less than 20 µM; in [18] (setting [43]), no less than 20 µM. Besides, the Kd in test [19] (setting [43]), in test [20] (setting [43]), in test [21] (setting [44]), in test [22] (setting [43]), in [32] (setting [44]) and in test [24] (setting [43]) was no less than 20 µM in each case. The Kd in test [33] (setting [43]), in test [25] (setting [43]) and in [27] (setting [44]) was no less than 20 µM in each case.
LLQKYPPPR: the concentration for half-maximal inhibition (IC50) was 4.03 µM in test [28], no less than 101 µM in [34] and 7.75 µM in test [29].
As for SLYPNVCIF, the IC50 in [28] was no less than 365 µM; in test [35], 5.7 µM; in test [34], 1.88 µM; in test [36], 0.0384 µM. Besides, the Kd in test [37] is 0.00494 µM.
Turning to SDRLHHDPL, the dissociation constant (Kd) in test [14] (setting [45]) is no less than 20 µM; in test [15] (setting [45]), no less than 20 µM; in [31] (setting [45]) it was 0.28 µM; in test [16] (setting [45]), no less than 20 µM; in [17] (setting [45]) it was no less than 20 µM; in test [18] (setting [45]) it was no less than 20 µM. Further, the Kd in [19] (setting [45]), in test [20] (setting [45]), in [22] (setting [45]), in test [23] (setting [45]), in test [32] (setting [45]) and in test [24] (setting [45]) was no less than 20 µM each time. The Kd in test [33] (setting [45]), in test [25] (setting [45]), in test [26] (setting [45]) and in test [27] (setting [45]) was no less than 20 µM each time.
In the case of SADPLASLL, the Kd in test [38] is 0.157 µM; in [15] (setting [46]) it was no less than 20 µM; in [31] (setting [42]), 3.25 µM; in [17] (setting [42]) it was 1.37 µM; in test [18] (setting [46]) it was no less than 20 µM; in test [19] (setting [46]), no less than 20 µM. The Kd in test [21] (setting [46]) was no less than 20 µM; in test [22] (setting [46]), no less than 20 µM; in test [39] it was no more than 0.001 µM; in [24] (setting [46]), no less than 20 µM; in [33] (setting [46]), no less than 20 µM; in [25] (setting [46]), no less than 20 µM. Moreover, the Kd in [26] (setting [46]) and in test [27] (source organism: Influenza A virus(A/swine/Shandong/fNY/2003(H9N2))) was no less than 20 µM throughout.
